# B1: EBP50 (ezrin binding protein 50), endogenous in MCF-7 cells (other, human, UniProt O14745 2-358, looked up)
# chain: SADAAAGAPLPRLCCLEKGPNGYGFHLHGEKGKLGQYIRLVEPGSPAEKAGLLAGDRLVEVNGENVEKETHQQVVSRIRAALNAVRLLVVDPETDEQLQKLGVQVREELLRAQEAPGQAEPPAAAEVQGAGNENEPREADKSHPEQRELRPRLCTMKKGPSGYGFNLHSDKSKPGQFIRSVDPDSPAEASGLRAQDRIVEVNGVCMEGKQHGDVVSAIRAGGDETKLLVVDRETDEFFKKCRVIPSQEHLNGPLPVPFTNGEIQKENSREALAEAALESPRPALVRSASSDTSEELNSQDSPPKQDSTAPSSTSSSDPILDFNISLAMAKERAHQKRSSKRAPQMDWSKKNELFSNL
# notes: also called NHE-RF; SLC9A3R1
# B2: in vitro translated RhoGDI (other, UniProt P52565 1-204, looked up)
# chain: MAEQEPTAEQLAQIAAENEEDEHSVNYKPPAQKSIQEIQELDKDDESLRKYKEALLGRVAVSADPNVPNVVVTGLTLVCSSAPGPLELDLTGDLESFKKQSFVLKEGVEYRIKISFRVNREIVSGMKYIQHTYRKGVKIDKTDYMVGSYGPRAEEYEFLTPVEEAPKGMLARGSYSIKSRFTDDDKTDHLSWEWNLTIKKDWKD
# B3: GST-p300 HAT (protein)
# chain: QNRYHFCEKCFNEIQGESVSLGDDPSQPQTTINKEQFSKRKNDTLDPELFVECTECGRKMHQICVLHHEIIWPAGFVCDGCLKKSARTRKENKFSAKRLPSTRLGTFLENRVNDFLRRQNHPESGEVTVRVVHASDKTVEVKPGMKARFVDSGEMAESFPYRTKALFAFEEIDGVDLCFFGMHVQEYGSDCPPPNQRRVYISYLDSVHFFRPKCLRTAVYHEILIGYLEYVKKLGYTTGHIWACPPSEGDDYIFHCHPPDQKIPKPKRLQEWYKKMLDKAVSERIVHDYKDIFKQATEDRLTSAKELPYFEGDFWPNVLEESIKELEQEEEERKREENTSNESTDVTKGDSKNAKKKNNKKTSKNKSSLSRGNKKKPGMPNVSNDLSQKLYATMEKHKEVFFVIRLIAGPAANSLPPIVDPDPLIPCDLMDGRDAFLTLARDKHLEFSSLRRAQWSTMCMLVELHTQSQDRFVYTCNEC
# Key:
# [1] = target: T1, HER2, endogenous in MCF-7 cells (human, UniProt P04626 23-1255); experiment: immunoprecipitation and immunoblot, MCF-7 cells
# T1 construct: also called HER-2/neu
# Method: In Panel B, immunoprecipitation of E or T treated MCF-7 cells was performed followed by immunoblot analysis.
# [2] = target: T2, in vitro translated, 35S-incorporated ER (UniProt P03372 1-595, 35S-incorporated (in vitro translated)); experiment: GST pull-down with or without E2 or Tamoxifen (FIG. 29)
# T2 construct: also called ERα
# T2 sequence (looked up): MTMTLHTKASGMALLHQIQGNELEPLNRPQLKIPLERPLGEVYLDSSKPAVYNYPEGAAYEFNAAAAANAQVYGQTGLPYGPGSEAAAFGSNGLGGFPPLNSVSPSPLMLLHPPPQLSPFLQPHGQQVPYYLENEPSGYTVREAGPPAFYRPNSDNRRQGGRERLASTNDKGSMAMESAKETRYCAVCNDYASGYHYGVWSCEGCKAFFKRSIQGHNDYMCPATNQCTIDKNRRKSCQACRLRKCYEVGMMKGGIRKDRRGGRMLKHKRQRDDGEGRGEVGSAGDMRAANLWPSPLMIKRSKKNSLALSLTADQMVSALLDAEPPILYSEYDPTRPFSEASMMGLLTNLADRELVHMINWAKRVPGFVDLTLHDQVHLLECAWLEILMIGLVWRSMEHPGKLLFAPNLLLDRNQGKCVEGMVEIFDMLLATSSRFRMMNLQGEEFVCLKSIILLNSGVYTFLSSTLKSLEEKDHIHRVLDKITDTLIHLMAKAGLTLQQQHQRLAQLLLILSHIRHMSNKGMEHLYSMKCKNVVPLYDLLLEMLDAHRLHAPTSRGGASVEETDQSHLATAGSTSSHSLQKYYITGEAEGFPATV
# GST-RhoGDI, P52565 = target: T3, GST-RhoGDI, P52565
# T3 chain: B2 chain
# GST-ER, P03372 = target: T4, GST-ER, P03372
# T4 chain: T2 sequence (looked up)
# [3] = target: T5, GST-RhoGDI (aa:1-81), P52565
# T5 chain: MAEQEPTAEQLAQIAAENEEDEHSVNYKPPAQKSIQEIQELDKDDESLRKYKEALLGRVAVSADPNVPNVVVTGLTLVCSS
binder,measurement,setting,value
B1,binding result,[1],binds
B2,binding result,[2],no binding
B3,"in vitro acetylation assay (14C-acetyl-CoA, SDS-PAGE, autoradiography)","GST-RhoGDI, P52565","RhoGDI, like ERα, is acetylated by p300."
same,competitive in vitro acetylation assay,"GST-ER, P03372",Purified GST-ER was acetylated by GST-p300HAT in the presence of increasing amount of GST-RhoGDI.
same,"in vitro acetylation assay (14C-acetyl-CoA, SDS-PAGE, autoradiography)",[3],The result indicates that N-terminal of RhoGDI contains acetylation site(s).

# — US20060246470A1 (published 2006)
